Measurements reported in patent EP4635976A1 (Medigene Immunotherapies GmbH, dated 2025).

How the values were obtained:
Experiment in all cases: cell-based or functional assay
[1] = biological target: mismatched peptide #9 …
[2] = biological target: mismatched peptide #257 …
[3] = biological target: mismatched peptide #243 …
[4] = biological target: mismatched peptide #246 …
[5] = biological target: mismatched peptide #45 …
[6] = biological target: mismatched peptide #314 …
[7] = biological target: mismatched peptide #221 …
[8] = biological target: mismatched peptide #240 …
[9] = biological target: mismatched peptide #76 …
[10] = biological target: mismatched peptide #13 …
[11] = biological target: mismatched peptide #278 …
[12] = biological target: mismatched peptide #15 …
[13] = biological target: mismatched peptide #265 …
[14] = biological target: mismatched peptide #324 …
[15] = biological target: mismatched peptide #31 …
[16] = biological target: mismatched peptide #236 …
[17] = biological target: mismatched peptide #79 …
[18] = biological target: mismatched peptide #7 …
[19] = biological target: mismatched peptide #239 …
[20] = biological target: mismatched peptide #8 …
[21] = biological target: mismatched peptide #116 …
[22] = biological target: mismatched peptide #62 …
[23] = biological target: mismatched peptide #160 …
[24] = biological target: mismatched peptide #244 …
[25] = biological target: mismatched peptide #247 …
[26] = biological target: mismatched peptide #323 …
[27] = biological target: mismatched peptide #228 …
[28] = biological target: mismatched peptide #41 …
[29] = biological target: mismatched peptide #24 …
[30] = biological target: mismatched peptide #47 …
[31] = biological target: mismatched peptide #280 …
[32] = biological target: mismatched peptide #84 …

B1: NY-ESO specific TCR (T11.8-10-17), wild type (TCR)
TCR alpha: QKEVEQNSGPLSVPEGAIASLNCTYSDRGSQSFFWYRQYSGKSPELIMFIYSNGDKEDGRFTAQLNKASQYVSLLIRDSQPSDSATYLCAADDKIIFGKGTRLHILPNIQNPDPAVYQLRDSKSSDKSVCLFTDFDSQTNVSQSKDSDVYITDKTVLDMRSMDFKSNSAVAWSNKSDFACANAFNNSIIPEDTFFPSSDVPCDVKLVEKSFETDTNLNFQNLSVIGFRILLLKVAGFNLLMTLRLWSS
TCR beta: DAGVIQSPRHEVTEMGQEVTLRCKPISGHDYLFWYRQTMMRGLELLIYFNNNVPIDDSGMPEDRFSAKMPNASFSTLKIQPSEPRDSAVYFCASSRGGSGYTFGSGTRLTVVEDLNKVFPPEVAVFEPSKAEIAHTQKATLVCLATGFFPDHVELSWWVNGKEVHSGVSTDPQPLKEQPALNDSRYCLSSRLRVSATFWQNPRNHFRCQVQFYGLSENDEWTQDRAKPVTQIVSAEAWGRADCGITSASYHQGVLSATILYEILLGKATLYAVLVSALVLMAMVKRKDF
[1]
  IFN-γ release (IFNg-ELISA), donor MIT 045: 26.5 pg/mL
[2]
  IFN-γ release (IFNg-ELISA), donor MIT038: 383 pg/mL
  IFN-γ release (IFNg-ELISA), donor MIT 045: 57.9 pg/mL
[3]
  IFN-γ release (IFNg-ELISA), donor MIT038: 380 pg/mL
  IFN-γ release (IFNg-ELISA), donor MIT 045: 47.2 pg/mL
[4]
  IFN-γ release (IFNg-ELISA), donor MIT038: 321 pg/mL
  IFN-γ release (IFNg-ELISA), donor MIT 045: 40.9 pg/mL
[5]
  IFN-γ release (IFNg-ELISA), donor MIT038: 1500 pg/mL
  IFN-γ release (IFNg-ELISA), donor MIT 045: 177 pg/mL
[6]
  IFN-γ release (IFNg-ELISA), donor MIT 045: 26.7 pg/mL
[7]
  IFN-γ release (IFNg-ELISA), donor MIT038: 789 pg/mL
  IFN-γ release (IFNg-ELISA), donor MIT 045: 101 pg/mL
[8]
  IFN-γ release (IFNg-ELISA), donor MIT038: 237 pg/mL
  IFN-γ release (IFNg-ELISA), donor MIT 045: 23.4 pg/mL
[9]
  IFN-γ release (IFNg-ELISA), donor MIT038: 769 pg/mL
  IFN-γ release (IFNg-ELISA), donor MIT 045: 150 pg/mL
[10]
  IFN-γ release (IFNg-ELISA), donor MIT 045: 20.8 pg/mL
[11]
  IFN-γ release (IFNg-ELISA), donor MIT038: 464 pg/mL
  IFN-γ release (IFNg-ELISA), donor MIT 045: 50.8 pg/mL
[12]
  IFN-γ release (IFNg-ELISA), donor MIT038: 282 pg/mL
  IFN-γ release (IFNg-ELISA), donor MIT 045: 47.1 pg/mL
[13]
  IFN-γ release (IFNg-ELISA), donor MIT038: 366 pg/mL
  IFN-γ release (IFNg-ELISA), donor MIT 045: 43.2 pg/mL
[14]
  IFN-γ release (IFNg-ELISA), donor MIT038: 432 pg/mL
[15]
  IFN-γ release (IFNg-ELISA), donor MIT038: 2130 pg/mL
  IFN-γ release (IFNg-ELISA), donor MIT 045: 887 pg/mL
[16]
  IFN-γ release (IFNg-ELISA), donor MIT038: 256 pg/mL
  IFN-γ release (IFNg-ELISA), donor MIT 045: 32.3 pg/mL
[17]
  IFN-γ release (IFNg-ELISA), donor MIT038: 292 pg/mL
  IFN-γ release (IFNg-ELISA), donor MIT 045: 40.3 pg/mL
[18]
  IFN-γ release (IFNg-ELISA), donor MIT 045: 24 pg/mL
[19]
  IFN-γ release (IFNg-ELISA), donor MIT038: 229 pg/mL
  IFN-γ release (IFNg-ELISA), donor MIT 045: 32.1 pg/mL
[20]
  IFN-γ release (IFNg-ELISA), donor MIT 045: 24.7 pg/mL
[21]
  IFN-γ release (IFNg-ELISA), donor MIT 045: 32.4 pg/mL
[22]
  IFN-γ release (IFNg-ELISA), donor MIT038: 819 pg/mL
  IFN-γ release (IFNg-ELISA), donor MIT 045: 88.3 pg/mL
[23]
  IFN-γ release (IFNg-ELISA), donor MIT038: 3620 pg/mL
  IFN-γ release (IFNg-ELISA), donor MIT 045: 1290 pg/mL
[24]
  IFN-γ release (IFNg-ELISA), donor MIT038: 441 pg/mL
  IFN-γ release (IFNg-ELISA), donor MIT 045: 45.4 pg/mL
[25]
  IFN-γ release (IFNg-ELISA), donor MIT038: 681 pg/mL
  IFN-γ release (IFNg-ELISA), donor MIT 045: 80.5 pg/mL
[26]
  IFN-γ release (IFNg-ELISA), donor MIT038: 3700 pg/mL
  IFN-γ release (IFNg-ELISA), donor MIT 045: 658 pg/mL
[27]
  IFN-γ release (IFNg-ELISA), donor MIT038: 234 pg/mL
  IFN-γ release (IFNg-ELISA), donor MIT 045: 35.4 pg/mL
[28]
  IFN-γ release (IFNg-ELISA), donor MIT038: 298 pg/mL
  IFN-γ release (IFNg-ELISA), donor MIT 045: 55.6 pg/mL
[29]
  IFN-γ release (IFNg-ELISA), donor MIT 045: 24.3 pg/mL

B2: NY-ESO specific TCR (T11.8-10-17) with Uni-TABS epitope V1 at A199 in loop 1 of TRBC (TCR)
TCR alpha: B1 TCR alpha
TCR beta: DAGVIQSPRHEVTEMGQEVTLRCKPISGHDYLFWYRQTMMRGLELLIYFNNNVPIDDSGMPEDRFSAKMPNASFSTLKIQPSEPRDSAVYFCASSRGGSGYTFGSGTRLTVVEDLNKVFPPEVAVFEPSKAEIAHTQKATLVCLATGFFPDHVELSWWVNGKEVHSGVSTDPQPLKEQPAGSGDKGEVPKDRFSAGSGLNDSRYCLSSRLRVSATFWQNPRNHFRCQVQFYGLSENDEWTQDRAKPVTQIVSAEAWGRADCGITSASYHQGVLSATILYEILLGKATLYAVLVSALVLMAMVKRKDF
[1]
  IFN-γ release (IFNg-ELISA), donor MIT038: 258 pg/mL
[2]
  IFN-γ release (IFNg-ELISA), donor MIT038: 407 pg/mL
[3]
  IFN-γ release (IFNg-ELISA), donor MIT038: 499 pg/mL
  IFN-γ release (IFNg-ELISA), donor MIT 045: 356 pg/mL
[4]
  IFN-γ release (IFNg-ELISA), donor MIT038: 345 pg/mL
[5]
  IFN-γ release (IFNg-ELISA), donor MIT038: 1410 pg/mL
  IFN-γ release (IFNg-ELISA), donor MIT 045: 1520 pg/mL
[7]
  IFN-γ release (IFNg-ELISA), donor MIT038: 900 pg/mL
  IFN-γ release (IFNg-ELISA), donor MIT 045: 889 pg/mL
[30]
  IFN-γ release (IFNg-ELISA), donor MIT 045: 530 pg/mL
[8]
  IFN-γ release (IFNg-ELISA), donor MIT038: 386 pg/mL
[9]
  IFN-γ release (IFNg-ELISA), donor MIT038: 825 pg/mL
  IFN-γ release (IFNg-ELISA), donor MIT 045: 939 pg/mL
[11]
  IFN-γ release (IFNg-ELISA), donor MIT038: 442 pg/mL
[12]
  IFN-γ release (IFNg-ELISA), donor MIT038: 520 pg/mL
  IFN-γ release (IFNg-ELISA), donor MIT 045: 306 pg/mL
[13]
  IFN-γ release (IFNg-ELISA), donor MIT038: 400 pg/mL
[14]
  IFN-γ release (IFNg-ELISA), donor MIT038: 757 pg/mL
  IFN-γ release (IFNg-ELISA), donor MIT 045: 628 pg/mL
[15]
  IFN-γ release (IFNg-ELISA), donor MIT038: 2420 pg/mL
  IFN-γ release (IFNg-ELISA), donor MIT 045: 1560 pg/mL
[16]
  IFN-γ release (IFNg-ELISA), donor MIT038: 476 pg/mL
  IFN-γ release (IFNg-ELISA), donor MIT 045: 400 pg/mL
[17]
  IFN-γ release (IFNg-ELISA), donor MIT038: 370 pg/mL
[19]
  IFN-γ release (IFNg-ELISA), donor MIT038: 312 pg/mL
[21]
  IFN-γ release (IFNg-ELISA), donor MIT 045: 257 pg/mL
[31]
  IFN-γ release (IFNg-ELISA), donor MIT038: 256 pg/mL
[22]
  IFN-γ release (IFNg-ELISA), donor MIT038: 942 pg/mL
  IFN-γ release (IFNg-ELISA), donor MIT 045: 918 pg/mL
[23]
  IFN-γ release (IFNg-ELISA), donor MIT038: 2800 pg/mL
  IFN-γ release (IFNg-ELISA), donor MIT 045: 2840 pg/mL
[24]
  IFN-γ release (IFNg-ELISA), donor MIT038: 387 pg/mL
  IFN-γ release (IFNg-ELISA), donor MIT 045: 261 pg/mL
[25]
  IFN-γ release (IFNg-ELISA), donor MIT038: 537 pg/mL
  IFN-γ release (IFNg-ELISA), donor MIT 045: 372 pg/mL
[26]
  IFN-γ release (IFNg-ELISA), donor MIT038: 3170 pg/mL
  IFN-γ release (IFNg-ELISA), donor MIT 045: 3000 pg/mL
[27]
  IFN-γ release (IFNg-ELISA), donor MIT038: 484 pg/mL
  IFN-γ release (IFNg-ELISA), donor MIT 045: 1200 pg/mL
[28]
  IFN-γ release (IFNg-ELISA), donor MIT038: 555 pg/mL
  IFN-γ release (IFNg-ELISA), donor MIT 045: 680 pg/mL

B3: NY-ESO specific TCR (T11.8-10-17) with Uni-TABS epitope V1 at A245 in loop 2 of TRBC (TCR)
TCR alpha: B1 TCR alpha
TCR beta: DAGVIQSPRHEVTEMGQEVTLRCKPISGHDYLFWYRQTMMRGLELLIYFNNNVPIDDSGMPEDRFSAKMPNASFSTLKIQPSEPRDSAVYFCASSRGGSGYTFGSGTRLTVVEDLNKVFPPEVAVFEPSKAEIAHTQKATLVCLATGFFPDHVELSWWVNGKEVHSGVSTDPQPLKEQPALNDSRYCLSSRLRVSATFWQNPRNHFRCQVQFYGLSENDEWTQDRAGSGDKGEVPKDRFSAGSGKPVTQIVSAEAWGRADCGITSASYHQGVLSATILYEILLGKATLYAVLVSALVLMAMVKRKDF
[2]
  IFN-γ release (IFNg-ELISA), donor MIT 045: 0 pg/mL
[3]
  IFN-γ release (IFNg-ELISA), donor MIT 045: 0 pg/mL
[4]
  IFN-γ release (IFNg-ELISA), donor MIT 045: 0 pg/mL
[5]
  IFN-γ release (IFNg-ELISA), donor MIT 045: 0 pg/mL
[7]
  IFN-γ release (IFNg-ELISA), donor MIT 045: 0 pg/mL
[9]
  IFN-γ release (IFNg-ELISA), donor MIT 045: 0 pg/mL
[11]
  IFN-γ release (IFNg-ELISA), donor MIT 045: 0 pg/mL
[32]
  IFN-γ release (IFNg-ELISA), donor MIT 045: 0 pg/mL
[12]
  IFN-γ release (IFNg-ELISA), donor MIT 045: 0 pg/mL
[14]
  IFN-γ release (IFNg-ELISA), donor MIT 045: 0 pg/mL
[15]
  IFN-γ release (IFNg-ELISA), donor MIT 045: 0 pg/mL
[17]
  IFN-γ release (IFNg-ELISA), donor MIT 045: 0 pg/mL
[22]
  IFN-γ release (IFNg-ELISA), donor MIT 045: 0 pg/mL
[23]
  IFN-γ release (IFNg-ELISA), donor MIT 045: 0 pg/mL
[24]
  IFN-γ release (IFNg-ELISA), donor MIT 045: 0 pg/mL
[25]
  IFN-γ release (IFNg-ELISA), donor MIT 045: 0 pg/mL
[26]
  IFN-γ release (IFNg-ELISA), donor MIT 045: 0 pg/mL
[27]
  IFN-γ release (IFNg-ELISA), donor MIT 045: 0 pg/mL
[28]
  IFN-γ release (IFNg-ELISA), donor MIT 045: 0 pg/mL
